Source: publication PMC3167817, “A Neutralizing RNA Aptamer against EGFR Causes Selective Apoptotic Cell Death”

Experiments:
[1] = molecular target: EC-ErbB3 (soluble extracellular domain), disulfide-linked homodimer (human, UniProt P21860 20-643); assay: filter binding; 20 and 40 nM protein; Filter binding: 1 nM radiolabeled RNA, PBS + 0.01% BSA, 15 min, 37 C (5 mM DTT for monomer); CL4sc background subtracted; pull-down: 200 nM aptamer on A549 cells 30 min RT, lysis in 10 mM Tris-HCl pH 7.5, 200 mM NaCl, 5 mM EDTA, 0.1% Triton X-100; conditions: protein: commercial, chain copies: 2
[2] = molecular target: EC-EGFR (soluble extracellular domain), disulfide-linked homodimer (human, UniProt P00533 25-645); assay: filter binding; Filter binding: 1 nM radiolabeled RNA, PBS + 0.01% BSA, 15 min, 37 C (5 mM DTT for monomer); CL4sc background subtracted; pull-down: 200 nM aptamer on A549 cells 30 min RT, lysis in 10 mM Tris-HCl pH 7.5, 200 mM NaCl, 5 mM EDTA, 0.1% Triton X-100; conditions: protein: commercial, chain copies: 2

Sequence of EC-ErbB3 (soluble extracellular domain), disulfide-linked homodimer (P21860 20-643): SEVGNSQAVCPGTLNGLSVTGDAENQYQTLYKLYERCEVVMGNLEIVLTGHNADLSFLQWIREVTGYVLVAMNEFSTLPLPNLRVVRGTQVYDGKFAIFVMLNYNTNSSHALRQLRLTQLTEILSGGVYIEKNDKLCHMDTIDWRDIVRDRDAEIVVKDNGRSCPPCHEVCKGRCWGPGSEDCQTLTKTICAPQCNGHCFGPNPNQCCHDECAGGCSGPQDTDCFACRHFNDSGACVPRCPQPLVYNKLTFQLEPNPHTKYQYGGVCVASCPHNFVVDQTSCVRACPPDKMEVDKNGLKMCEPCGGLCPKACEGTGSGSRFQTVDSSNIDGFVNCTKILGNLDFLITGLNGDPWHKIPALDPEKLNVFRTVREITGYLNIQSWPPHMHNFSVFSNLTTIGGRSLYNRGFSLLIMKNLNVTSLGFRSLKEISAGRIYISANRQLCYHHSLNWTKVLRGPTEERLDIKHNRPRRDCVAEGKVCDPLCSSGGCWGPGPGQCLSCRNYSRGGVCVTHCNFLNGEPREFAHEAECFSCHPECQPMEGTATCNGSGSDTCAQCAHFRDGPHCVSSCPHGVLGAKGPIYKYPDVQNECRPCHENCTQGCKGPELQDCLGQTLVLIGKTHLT

B1: CL4 (structured_RNA)
RNA: GCCUUAGUAACGUGCUUUGAUGUCGAUUCGACAGGAGGC
modifications: 2'-fluoro pyrimidines
binding result [1]: no binding | Kd [2]: 10 nM
